Assay results: patent US20090142855A1 (published 2009)

Target: T1, human IL12RB1 Fc fusion protein (human, UniProt P42701 24-545)
T1 construct: Purchased from R & D systems; Coated on the ELISA plate; also called human IL-12RB1 receptor subunit; human IL12 receptor; not shown: Fc part of the purchased fusion protein (R & D systems)
Assay: ELISA, receptor-Fc coated on plate, titration of cytokine, detection with anti-human p40 monoclonal antibodies
Method: To test whether cynomolgus IL-23 binds to the human IL23 receptor (“IL23R”), and whether cynomolgus IL-12 binds to the human IL12 receptor (“IL12RB1”), human IL23R Fc and human IL12RB1 Fc fusion proteins were purchased (R & D systems) for an ELISA assay. To capture IL23R Fc fusion protein, 500 ng of IL23R—Fc protein in 100 μl of PBS (pH 7.4) was put onto a 96-well Maxisorb plate (NUNC, Rochester, N.Y.) and incubated overnight at 4° C. Likewise, to capture IL12RB1 Fc fusion protein, 500 ng of IL12RB1 Fe protein in 100 μl of PBS (pH 7.4) was put onto a 96-well Maxisorb plate (NUNC, Rochester, N.Y.) and incubated overnight at 4° C. For each, the capture solution was thrown away after overnight incubation and the plate was washed with 200 μl per well of TBST (25 mM Tris-HCl pH 7.5, 150 mM NaCl and 0.01% Tween 20) three times. The plate was then blocked with 200 μl per well of TBST containing 5% nonfat dry milk for 30 minutes at room temperature. After blocking, the plate was washed 3 times with 200 μl per well of TBST at room temperature and a titration of cynoIL23 or cynoIL12 in PBS was added to the plate and incubated at room temperature for 1 hour. […] A 100 μl solution containing 2 NH₂SO₄ was added to stop the reaction and the plate was read on a 96 well SpectroMax plate reader at 450 nm.

B1: cynomolgus IL-12 (single chain: cyno p40 - 2 bovine elastin motifs - cyno p35) (ligand)
chain: IWELKKDVYVVELDWYPDAPGEMVVLTCDTPEEDGITWTLDQSGEVLGSGKTLTIQVKEFGDAGQYTCHKGGEALSHSLLLLHKKEDGIWSTDVLKDQKEPKNKTFLRCEAKNYSGRFTCWWLTTISTDLTFSVKSSRGSSNPQGVTCGAVTLSAERVRGDNKEYEYSVECQEDSACPAAEERLPIEVMVDAIHKLKYENYTSSFFIRDIIKPDPPKNLQLKPLKNSRQVEVSWEYPDTWSTPHSYFSLTFCIQVQGKSKREKKDRIFTDKTSATVICRKNASFSVQAQDRYYSSSWSEWASVPCSVPGVGVPGVGRNLSVATPGPEMFPCLHHSQNLLKAASNTLQKARQILEFYPCTSEEIDHEDITKDKTSTVEACLPLELIKNESCLNSRETSFITNGSCLASRKTSFMMALCLRSIYEDLKMYQVEFKTMNAKLLRDPKRQIFLDQNILGVIDELMQALNFNSETVPQKSSLEEPDFYKTKIKLCILLHAFRIRAVTIDRVMSYLNAS
notes: expressed in 293F cells and purified from the supernatant, about 95% pure; Any vector-derived residues at the junctions or a signal peptide are not described; also called cynoIL12; cyno IL-12
B1: binds.
